Numbering of substitutions follows the chain as printed.
T1: human GIP receptor (human) (UniProt P48546)
T1 sequence (looked up): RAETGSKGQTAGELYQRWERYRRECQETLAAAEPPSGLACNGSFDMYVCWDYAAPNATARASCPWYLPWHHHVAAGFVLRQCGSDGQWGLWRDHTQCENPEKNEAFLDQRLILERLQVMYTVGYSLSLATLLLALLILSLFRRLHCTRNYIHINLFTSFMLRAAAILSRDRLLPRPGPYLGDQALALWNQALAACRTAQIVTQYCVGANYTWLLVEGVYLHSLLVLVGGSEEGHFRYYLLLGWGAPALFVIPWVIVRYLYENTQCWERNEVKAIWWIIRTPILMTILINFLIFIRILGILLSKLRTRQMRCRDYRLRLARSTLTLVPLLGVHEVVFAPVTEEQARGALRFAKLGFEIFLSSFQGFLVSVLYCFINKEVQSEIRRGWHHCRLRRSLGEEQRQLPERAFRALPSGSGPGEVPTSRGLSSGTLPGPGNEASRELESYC

B1: Example 152 (peptide)
chain: YXQGTFTSDFSXXLDKKAQXAFIEYLLAGGPSSGEPPPEGS
modifications: Aib, Orn, αMeL; acylated Lys (AEEA-γGlu-C18 diacid); C-terminal amide; synthetic construct; SITE 2: note = 2-Aminoisobutyric Acid; SITE 12: note = L-ornithine; SITE 13: note = alpha-methyl-leucine; SITE 17: note = Lysine is chemically modified through conjugation of the epsilon-amino group of the Lysine side chain with (2-[2-(2-Amino-ethoxy)-ethoxy]-acetyl)-(gamma-Glu)
B2: Example 170 (peptide)
chain: B1 chain with Y25W, A28E, P31H, E35A, E39S
modifications: Lys acylated with AEEA-γGlu-C18 diacid; non-natural residues; C-amide; synthetic construct; SITE 2: note = 2-Aminoisobutyric Acid; SITE 12: note = L-ornithine; SITE 13: note = alpha-methyl-leucine; SITE 17: note = Lysine is chemically modified through conjugation of the epsilon-amino group of the Lysine side chain with (2-[2-(2-Amino-ethoxy)-ethoxy]-acetyl)-(gamma-Glu)
B3: Example 197 (peptide)
chain: B1 chain with A28E, E35A, E39G, S41T
modifications: non-natural residues; lipidated Lys; synthetic construct; SITE 2: note = 2-Aminoisobutyric Acid; SITE 12: note = L-ornithine; SITE 13: note = alpha-methyl-leucine; SITE 17: note = Lysine is chemically modified through conjugation of the epsilon-amino group of the Lysine side chain with (2-[2-(2-Amino-ethoxy)-ethoxy]-acetyl)-(gamma-Glu)
B4: Example 153 (peptide)
chain: B1 chain with E39S
modifications: Aib, Orn, αMeL; acylated Lys (AEEA-γGlu2-C18 diacid); C-terminal amide; synthetic construct; SITE 2: note = 2-Aminoisobutyric Acid; SITE 12: note = L-ornithine; SITE 13: note = alpha-methyl-leucine; SITE 17: note = Lysine is chemically modified through conjugation of the epsilon-amino group of the Lysine side chain with (2-[2-(2-Amino-ethoxy)-ethoxy]-acetyl)-(gamma-Glu)
B5: Example 206 (peptide)
chain: B1 chain with A28E, G29A, E35A, S41E
modifications: Aib, Orn, αMeL, D-Ala; AEEA-γGlu-C18 diacid acyl; amide; synthetic construct; SITE 2: note = 2-Aminoisobutyric Acid; SITE 12: note = L-ornithine; SITE 13: note = alpha-methyl-leucine; SITE 17: note = Lysine is chemically modified through conjugation of the epsilon-amino group of the Lysine side chain with (2-[2-(2-Amino-ethoxy)-ethoxy]-acetyl)-(gamma-Glu)
B6: Example 160 (peptide)
chain: B1 chain with A28E, E35A, S41T
modifications: Aib, Orn, αMeL, acylated Lys, amide; synthetic construct; SITE 2: note = 2-Aminoisobutyric Acid; SITE 12: note = L-ornithine; SITE 13: note = alpha-methyl-leucine; SITE 17: note = Lysine is chemically modified through conjugation of the epsilon-amino group of the Lysine side chain with (2-[2-(2-Amino-ethoxy)-ethoxy]-acetyl)-(gamma-Glu)
B7: Example 194 (peptide)
chain: B1 chain with A28E, G29X, E35A
modifications: Aib, Orn, αMeL; acylated lysine; C-terminal amide; synthetic construct; SITE 2: note = 2-Aminoisobutyric Acid; SITE 12: note = L-ornithine; SITE 13: note = alpha-methyl-leucine; SITE 17: note = Lysine is chemically modified through conjugation of the epsilon-amino group of the Lysine side chain with (2-[2-(2-Amino-ethoxy)-ethoxy]-acetyl)2-(gamma-Glu)
B8: Example 195 (peptide)
chain: B1 chain with A28E, G29X
modifications: Lys acylated (AEEA)2-γGlu-C18 diacid; non-natural residues; C-terminal amide; synthetic construct; SITE 2: note = 2-Aminoisobutyric Acid; SITE 12: note = L-ornithine; SITE 13: note = alpha-methyl-leucine; SITE 17: note = Lysine is chemically modified through conjugation of the epsilon-amino group of the Lysine side chain with (2-[2-(2-Amino-ethoxy)-ethoxy]-acetyl)2-(gamma-Glu)
B9: Example 178 (peptide)
chain: B1 chain with F10X, A28E, G29X, E35A, E39S
modifications: Aib, F(4CN), Orn, αMeL; lipidated Lys; C-terminal amide; synthetic construct; SITE 2: note = 2-Aminoisobutyric Acid; SITE 10: note = 4-cyano-L-phenylalanine; SITE 12: note = L-ornithine; SITE 13: note = alpha-methyl-leucine; SITE 17: note = Lysine is chemically modified through conjugation of the epsilon-amino group of the Lysine side chain with (2-[2-(2-
B10: Example 156 (peptide)
chain: B1 chain with A28E, G29A, E39S, S41T
modifications: (AEEA)2-γGlu-C18 diacid on Lys; non-natural residues; amide; synthetic construct; SITE 2: note = 2-Aminoisobutyric Acid; SITE 12: note = L-ornithine; SITE 13: note = alpha-methyl-leucine; SITE 17: note = Lysine is chemically modified through conjugation of the epsilon-amino group of the Lysine side chain with (2-[2-(2-Amino-ethoxy)-ethoxy]-acetyl)2-(gamma-Glu)
B11: Example 159 (peptide)
chain: B1 chain with A28E, E35A, E39G, S41Q
modifications: non-natural residues; lipidated Lys; C-terminal amide; synthetic construct; SITE 2: note = 2-Aminoisobutyric Acid; SITE 12: note = L-ornithine; SITE 13: note = alpha-methyl-leucine; SITE 17: note = Lysine is chemically modified through conjugation of the epsilon-amino group of the Lysine side chain with (2-[2-(2-Amino-ethoxy)-ethoxy]-acetyl)-(gamma-Glu)
B12: Example 191 (peptide)
chain: B1 chain with F10X, A28E, G29X, E35A, E39S
modifications: non-natural residues; lysine acylated AEEA-γGlu-C18 diacid; C-terminal amide; synthetic construct; SITE 2: note = 2-Aminoisobutyric Acid; SITE 10: note = 4-cyano-L-phenylalanine; SITE 12: note = L-ornithine; SITE 13: note = alpha-methyl-leucine; SITE 17: note = Lysine is chemically modified through conjugation of the epsilon-amino group of the Lysine side chain with (2-[2-(2-
B13: Example 161 (peptide)
chain: B1 chain with A28E, P31E, E35A, E39G
modifications: non-natural residues, lysine acylation, C-terminal amide; synthetic construct; SITE 2: note = 2-Aminoisobutyric Acid; SITE 12: note = L-ornithine; SITE 13: note = alpha-methyl-leucine; SITE 17: note = Lysine is chemically modified through conjugation of the epsilon-amino group of the Lysine side chain with (2-[2-(2-Amino-ethoxy)-ethoxy]-acetyl)-(gamma-Glu)
B14: Example 180 (peptide)
chain: YXQGTFTSDFSXXLDKKAQXAFIEYLLEXGESSGAPPPSGT
modifications: Aib, Orn, αMeL, acylated K, C-terminal amide; synthetic construct; SITE 2: note = 2-Aminoisobutyric Acid; SITE 12: note = L-ornithine; SITE 13: note = alpha-methyl-leucine; SITE 17: note = Lysine is chemically modified through conjugation of the epsilon-amino group of the Lysine side chain with (2-[2-(2-Amino-ethoxy)-ethoxy]-acetyl)2-(gamma-Glu)
B15: Example 182 (peptide)
chain: B14 chain with E31H
modifications: Aib, Orn, alpha-methyl-Leu, lipidated Lys, C-terminal amide; synthetic construct; SITE 2: note = 2-Aminoisobutyric Acid; SITE 12: note = L-ornithine; SITE 13: note = alpha-methyl-leucine; SITE 17: note = Lysine is chemically modified through conjugation of the epsilon-amino group of the Lysine side chain with (2-[2-(2-Amino-ethoxy)-ethoxy]-acetyl)2-(gamma-Glu)
B16: Example 184 (peptide)
chain: B14 chain with E31X
modifications: non-natural residues, acylated Lys, C-terminal amide; synthetic construct; SITE 2: note = 2-Aminoisobutyric Acid; SITE 12: note = L-ornithine; SITE 13: note = alpha-methyl-leucine; SITE 17: note = Lysine is chemically modified through conjugation of the epsilon-amino group of the Lysine side chain with (2-[2-(2-Amino-ethoxy)-ethoxy]-acetyl)2-(gamma-Glu)
B17: Example 207 (peptide)
chain: B14 chain with X29A, E31H, T41E
modifications: Aib, Orn, αMeL, D-Ala; lysine acylated C18 diacid; amide; synthetic construct; SITE 2: note = 2-Aminoisobutyric Acid; SITE 12: note = L-ornithine; SITE 13: note = alpha-methyl-leucine; SITE 17: note = Lysine is chemically modified through conjugation of the epsilon-amino group of the Lysine side chain with (2-[2-(2-Amino-ethoxy)-ethoxy]-acetyl)-(gamma-Glu)
B18: Example 190 (peptide)
chain: B14 chain with F10X, E31H, T41S
modifications: Aib, F(4CN), Orn, αMeL; lysine acylated C18 diacid; amide; synthetic construct; SITE 2: note = 2-Aminoisobutyric Acid; SITE 10: note = 4-cyano-L-phenylalanine; SITE 12: note = L-ornithine; SITE 13: note = alpha-methyl-leucine; SITE 17: note = Lysine is chemically modified through conjugation of the epsilon-amino group of the Lysine side chain with (2-[2-(2-

Target: T1, human GIP receptor (human)
Test: cell-based or functional assay

| Binder | Relative cAMP EC50, nM (0.1% casein) | cAMP Rel EC50, nM (1% HSA) | Relative cAMP EC50 |
| --- | --- | --- | --- |
| B1 | 0.259 nM | 23.2 nM | – |
| B2 | 0.401 nM | 43.5 nM | – |
| B3 | – | 44.1 nM | 0.31 nM |
| B4 | 0.218 nM | 16.8 nM | – |
| B5 | – | 38.8 nM | 0.224 nM |
| B6 | 0.354 nM | 44.4 nM | – |
| B7 | 0.212 nM | 19.7 nM | – |
| B8 | 0.145 nM | 28.8 nM | – |
| B9 | 0.34 nM | – | – |
| B10 | 0.208 nM | 25.8 nM | – |
| B11 | 0.343 nM | 49.7 nM | – |
| B12 | 0.422 nM | – | – |
| B13 | 0.555 nM | 87.3 nM | – |
| B14 | 0.14 nM | 24 nM | – |
| B15 | 0.0781 nM | 9.95 nM | – |
| B16 | 0.162 nM | 16.2 nM | – |
| B17 | – | 15.2 nM | 0.321 nM |
| B18 | 0.306 nM | 59.4 nM | – |

Target: hGLP-1R (Homo sapiens, UniProt P43220)
Test: cell-based or functional assay

Sequence of hGLP-1R (P43220 24-463): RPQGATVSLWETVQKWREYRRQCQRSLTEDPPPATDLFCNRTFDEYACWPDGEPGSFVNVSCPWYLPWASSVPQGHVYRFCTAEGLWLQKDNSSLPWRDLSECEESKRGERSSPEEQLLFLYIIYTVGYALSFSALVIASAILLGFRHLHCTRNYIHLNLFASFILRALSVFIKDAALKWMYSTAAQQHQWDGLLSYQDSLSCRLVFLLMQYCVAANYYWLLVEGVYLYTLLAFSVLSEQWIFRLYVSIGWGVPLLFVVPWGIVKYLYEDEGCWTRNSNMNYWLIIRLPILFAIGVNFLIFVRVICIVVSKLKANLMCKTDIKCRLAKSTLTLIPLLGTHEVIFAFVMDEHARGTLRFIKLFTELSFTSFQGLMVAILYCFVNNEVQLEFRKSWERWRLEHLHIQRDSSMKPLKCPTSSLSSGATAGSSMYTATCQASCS

| Binder | Relative cAMP EC50, nM (0.1% casein) | cAMP Rel EC50, nM (1% HSA) | Relative cAMP EC50 |
| --- | --- | --- | --- |
| B1 | 4.03 nM | 491 nM | – |
| B2 | 4.11 nM | 361 nM | – |
| B3 | – | 440 nM | 4.81 nM |
| B4 | 7.09 nM | 488 nM | – |
| B5 | – | 372 nM | 2.77 nM |
| B6 | 5.39 nM | 482 nM | – |
| B7 | 4.69 nM | 697 nM | – |
| B8 | 6.13 nM | 829 nM | – |
| B9 | 4.01 nM | – | – |
| B10 | 3.37 nM | 695 nM | – |
| B11 | 4.15 nM | 588 nM | – |
| B12 | 2.48 nM | – | – |
| B13 | 5.22 nM | 963 nM | – |
| B14 | 5.08 nM | 891 nM | – |
| B15 | 4.8 nM | 398 nM | – |
| B16 | 5.02 nM | 465 nM | – |
| B17 | – | 225 nM | 4.36 nM |
| B18 | 1.41 nM | 172 nM | – |

Target: human glucagon receptor (human) (UniProt P47871)
Test: cell-based or functional assay

Sequence of human glucagon receptor (human) (P47871 26-477): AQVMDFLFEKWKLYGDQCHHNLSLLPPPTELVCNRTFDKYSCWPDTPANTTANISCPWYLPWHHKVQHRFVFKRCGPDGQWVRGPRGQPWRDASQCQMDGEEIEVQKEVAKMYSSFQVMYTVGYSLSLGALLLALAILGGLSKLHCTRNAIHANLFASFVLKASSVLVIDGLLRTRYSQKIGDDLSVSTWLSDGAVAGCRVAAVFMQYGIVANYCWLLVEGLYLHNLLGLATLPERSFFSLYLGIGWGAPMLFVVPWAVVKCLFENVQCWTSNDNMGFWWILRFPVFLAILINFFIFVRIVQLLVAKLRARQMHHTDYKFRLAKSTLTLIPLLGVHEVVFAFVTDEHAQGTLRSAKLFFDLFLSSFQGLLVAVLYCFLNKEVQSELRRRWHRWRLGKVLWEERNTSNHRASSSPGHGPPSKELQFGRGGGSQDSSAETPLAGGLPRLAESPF

| Binder | Relative cAMP EC50, nM (0.1% casein) | cAMP Rel EC50, nM (1% HSA) | Relative cAMP EC50 |
| --- | --- | --- | --- |
| B1 | 6.91 nM | 1090 nM | – |
| B2 | 5.29 nM | 1800 nM | – |
| B3 | – | 613 nM | 3.23 nM |
| B4 | 14.7 nM | 1210 nM | – |
| B5 | – | 545 nM | 2.2 nM |
| B6 | 4.32 nM | 479 nM | – |
| B7 | 4.32 nM | 813 nM | – |
| B8 | 3.1 nM | 605 nM | – |
| B9 | 7.29 nM | – | – |
| B10 | 3.62 nM | 1520 nM | – |
| B11 | 6.89 nM | 475 nM | – |
| B12 | 2.11 nM | – | – |
| B13 | 4.83 nM | 902 nM | – |
| B14 | 2.44 nM | 1320 nM | – |
| B15 | 5.33 nM | 1480 nM | – |
| B16 | 5.23 nM | 1050 nM | – |
| B17 | – | 770 nM | 4.24 nM |
| B18 | 2.95 nM | 331 nM | – |

From US20240270821A1, “GIP/GLP1/GCG TRI-RECEPTOR AGONISTS AND USES THEREOF” (priority 2023, published 2024)
